Laboratory results published in patent US20220396632A1 (VERSEAU THERAPEUTICS, published 2022).

Legend:
[1] = target: T1, PSGL-1 endogenously expressed on HL-60 cells (UniProt Q14242 42-412); assay: flow cytometry on HL-60 cells; against parent 20I15
T1 construct: whole, on cells
T1 sequence (looked up): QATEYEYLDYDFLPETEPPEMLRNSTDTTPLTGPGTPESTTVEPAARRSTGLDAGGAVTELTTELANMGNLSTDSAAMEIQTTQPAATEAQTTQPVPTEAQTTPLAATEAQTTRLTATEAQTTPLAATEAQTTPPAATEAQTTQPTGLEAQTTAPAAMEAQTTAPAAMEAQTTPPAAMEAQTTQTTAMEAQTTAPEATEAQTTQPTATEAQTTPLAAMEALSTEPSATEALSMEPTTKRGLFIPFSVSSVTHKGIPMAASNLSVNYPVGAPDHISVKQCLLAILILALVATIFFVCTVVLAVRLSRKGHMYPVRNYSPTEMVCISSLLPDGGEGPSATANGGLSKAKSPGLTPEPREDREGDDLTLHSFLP
Procedure: A typical flow cytometry assay was performed by resuspending HL-60 cells in FACS buffer (5% FBS and 0.05% Sodium Azide in PBS, pH 7.2) on ice, pelleting cells by centrifugation at 500×g for 3 min, washing cells with FACS buffer, and then blocking Fc receptors on the cells with Fc block (human TruStain FcX™, BioLegend Cat. #422302) on ice for 10 min. After washing, 50,000 cells/50 ul in FACS buffer was added to each well of a 96-well round bottomed plate (Costar, Cat. #3797), and 50 ul of serially diluted (0.06 nM-1.0 uM) test or isotype control antibody was added into duplicate wells. The plate was covered and incubated on ice for 1 h. After washing, Phycoerythrin (PE) conjugated anti-human IgG secondary antibody (Abcam; Cat. #ab99825) was added to each well and the plate incubated in the dark on ice for 30 min. After washing, the cells were fixed (1% paraformaldhyde).

E61A = target: T2, E61A (C-terminal Lys-biotin); assay: alanine-scan ELISA, streptavidin-immobilized biotin peptide [cont.]
T2 construct: alanine-scan peptide; also called Biotin PSGL-1(42-62) E61A peptide; 61E
T2 peptide: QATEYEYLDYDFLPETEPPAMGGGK

[2] = target: T3, Biotin PSGL-1(42-62) E45A peptide (C-terminal Lys-biotin); assay: as above
T3 peptide: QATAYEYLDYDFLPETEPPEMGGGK

E47A = target: T4, E47A (C-terminal Lys-biotin); assay: as above
T4 construct: alanine-scan peptide; also called Biotin PSGL-1(42-62) E47A peptide; 47E
T4 peptide: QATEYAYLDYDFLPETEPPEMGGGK

T57A = target: T5, T57A (C-terminal Lys-biotin); assay: as above
T5 construct: alanine-scan peptide; also called Biotin PSGL-1(42-62) T57A peptide; 57T
T5 peptide: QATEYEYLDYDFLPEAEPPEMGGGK

Q42A = target: T6, Q42A (C-terminal Lys-biotin); assay: as above
T6 construct: alanine-scan peptide; also called Biotin PSGL-1(42-62) Q42A peptide; 42Q
T6 peptide: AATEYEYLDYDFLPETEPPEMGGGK

[3] = target: T7, Biotin PSGL-1(42-62) F53A peptide (C-terminal Lys-biotin); assay: as above
T7 peptide: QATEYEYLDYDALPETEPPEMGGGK

P59A = target: T8, P59A (C-terminal Lys-biotin); assay: as above
T8 construct: alanine-scan peptide; also called Biotin PSGL-1(42-62) P59A peptide; 59P
T8 peptide: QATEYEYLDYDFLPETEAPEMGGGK

E58A = target: T9, E58A (C-terminal Lys-biotin); assay: as above
T9 construct: alanine-scan peptide; also called Biotin PSGL-1(42-62) E58A peptide; 58E
T9 peptide: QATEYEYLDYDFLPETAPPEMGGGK

[4] = target: T10, Biotin PSGL-1(42-62) E56A peptide (C-terminal Lys-biotin); assay: as above
T10 peptide: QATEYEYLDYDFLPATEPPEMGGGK

M62A = target: T11, M62A (C-terminal Lys-biotin); assay: as above
T11 construct: alanine-scan peptide; also called Biotin PSGL-1(42-62) M62A peptide; 62M
T11 peptide: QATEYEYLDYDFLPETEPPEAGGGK

Y48A = target: T12, Y48A (C-terminal Lys-biotin); assay: as above
T12 construct: alanine-scan peptide; also called Biotin PSGL-1(42-62) Y48A peptide; 48Y
T12 peptide: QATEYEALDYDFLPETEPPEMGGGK

T44A = target: T13, T44A (C-terminal Lys-biotin); assay: as above
T13 construct: alanine-scan peptide; also called Biotin PSGL-1(42-62) T44A peptide; 44T
T13 peptide: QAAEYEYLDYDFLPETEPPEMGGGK

[5] = target: T14, Biotin PSGL-1(42-62) L49A peptide (C-terminal Lys-biotin); assay: as above
T14 peptide: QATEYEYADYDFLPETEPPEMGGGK

[6] = target: T15, Biotin Y46,48,51(SO3) PSGL-1(42-62) peptide (human, sulfotyrosine at Y46, Y48 and Y51; C-terminal Lys-biotin); assay: ELISA, plate-bound mAb captures biotin 3 x sY peptide
T15 construct: also called fully sulfated N-terminal PSGL-1 peptide
T15 peptide: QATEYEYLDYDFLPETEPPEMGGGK
Procedure: A typical ELISA for N-terminal PSGL-1 reactive humanized mAbs binding to Y_{46,48,51}(SO₃) PSGL-1₍₄₂₋₆₂₎ involved coating high binding half-well plates (Corning Cat. #3690) with 3 ug/mL/25 ul per well of the mAbs or with an isotype hG4 control in PBS, pH 7.4, overnight at 4° C. […] Biotinylated Y_{46,48,51}(SO₃) PSGL-1₍₄₂₋₆₂₎ was added (25 ul per well) in duplicate at 2.8 uM in assay buffer (blocking buffer containing 0.05% tween 20) and serially diluted into test and control (just blocked) wells, and the plate incubated for 45 min at 37° C. The plate was washed ×3 and an appropriate HRP-conjugated streptavidin was added (25 ul per well; Jackson Immunoresearch, Cat. #016-030-084) and the plate was incubated for 45 min at 37° C. […] For each antibody, an EC50 value was determined from sigmoidal fitted peptide titration curve.

B1: 20I15 (antibody, V domains shown)
VH: EVKLVESGGGLVQPGGSLSLSCAASGFTFTDYYMSWVRQPPGKALEWLGFIRNKANGYTTEYSASVKGRFTISRDNSQSILYLQMNALRAEDSATYYCARTYLRRGYFDVWGTGTTVTVSS
VL: DIVLTQSPASLAVSLGQRATISCRASKSVSTSGYSYMHWFQQKPGQPPKLLIYLASNLESGVPARFSGSGSGTDFTLNIHPVEEEDAATYYCQHSRELPLTFGAGTKLELK
notes: From mouse immunisation; only variable domains given; also called 20115
In the case of B1, the “HL-60 EC50 (normalized)” value [1] is reported as 1 fold.

B2: 9F9 (antibody, V domains shown)
VH: EVQLVETGGGLVQPKGSLKLSCAASGFTFNTNAMNWVRQAPGKGLEWVARIRSKSNNYATYYADSVKDRFTISRDDTQSMIYLQMNNLKTEDTGMYYCVRGGSYWYFDVWGAGTTVTVSS
VL: DVLMTQTPLSLPVSLGDQASISCRSSQSIVNSNGNTYLEWYLQKPGQSPKLLIYKVSNRFSGVPDRFSGSGSGTDFTLKISRVEAEDLGVYYCFQGSHVPWTFGGGTKLEIK
notes: Control anti-PSGL-1 mAb, recombinant; only variable domains given; also called 9F6
B2: binds (E61A); binds [2]; binds (E47A). B2: binds (T57A); binds (Q42A); binds [3]. B2: binds (P59A); binds (E58A); binds [4]. B2: binds (M62A); binds (Y48A); binds (T44A). B2: binds [5].

B3: 18F02 (antibody, V domains shown)
VH: QVQLQQPGAELVKPGASVKLSCKASGYTFTSYWMHWVKQRPGQGLEWIGMIHPNSGRTNYNEKFKSKATLTVDKSSSTAYMQLSSLTSEDSAVYYCARSDYWGQGTTLTVSS
VL: DIVMTQAAFSNPVTLGTSASISCRSSKSLLHSDGITYLYWFLQRPGQSPQLLIYRMSNLASGVPDRFSGSGSGTDFTLRISRVEAEDVGVYYCAQMLEFPRTFGGGTKLEIK
notes: From mouse immunisation; only variable domains given
B3 gave an EC50 [6] of 70 nM.
